Measurements: publication PMC7865296, “T Cell Mediated Conversion of a Non-Anti-La Reactive B Cell to an Autoreactive Anti-La B Cell by Somatic Hypermutation †” (International Journal of Molecular Sciences, 2021)
One block for each binder: values may come before it.

How the values were obtained:
[1] = target: T1, His-tagged La deletion mutant La_(278–408) (Homo sapiens (Human)., UniProt P05455); test: SDS-PAGE and immunoblotting; His-tagged full length La and N- and C-terminally truncated La deletion mutants from E. coli (nickel-NTA); probed with 16C; 10-fold the usual amount of protein applied; conditions: one partner purified
T1 construct: cloned into pET28a
T1 sequence (P05455 278-408, stated change not applied): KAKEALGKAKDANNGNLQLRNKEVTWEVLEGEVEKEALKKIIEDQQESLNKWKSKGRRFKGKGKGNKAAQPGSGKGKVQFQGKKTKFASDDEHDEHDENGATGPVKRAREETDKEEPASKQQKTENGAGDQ

[2] = target: T2, recombinant mouse La protein (Mus musculus (Mouse)., UniProt P32067); test: SDS-PAGE and immunoblotting; human (rhLa) or mouse (rmLa) La protein recombinantly expressed in E. coli, denatured on the blot; probed with hybridoma supernatants; conditions: one partner purified
T2 construct: mouse La protein, open reading frame cloned into pET28b; also called rmLa; mLa (recombinant)
T2 sequence (P32067 whole entry): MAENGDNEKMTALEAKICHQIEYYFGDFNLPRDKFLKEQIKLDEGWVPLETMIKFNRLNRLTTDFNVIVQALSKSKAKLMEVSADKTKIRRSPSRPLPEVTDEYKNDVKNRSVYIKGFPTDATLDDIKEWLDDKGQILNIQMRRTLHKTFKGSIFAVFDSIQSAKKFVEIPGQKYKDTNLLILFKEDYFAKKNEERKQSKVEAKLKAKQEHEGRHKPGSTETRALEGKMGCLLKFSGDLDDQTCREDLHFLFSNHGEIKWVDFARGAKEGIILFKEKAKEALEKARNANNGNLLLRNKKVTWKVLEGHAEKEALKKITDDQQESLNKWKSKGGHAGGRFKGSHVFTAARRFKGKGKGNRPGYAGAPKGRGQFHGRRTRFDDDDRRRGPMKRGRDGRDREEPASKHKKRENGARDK

[3] = target: T3, recombinant human La protein, full length (aa 1-408), His-tagged (Homo sapiens (Human)., UniProt P05455); test: as above; conditions: one partner purified
T3 construct: also called rhLa; hLa; not shown: His tag, C-terminal, kept
T3 sequence (P05455 whole entry, the tested form may be a part): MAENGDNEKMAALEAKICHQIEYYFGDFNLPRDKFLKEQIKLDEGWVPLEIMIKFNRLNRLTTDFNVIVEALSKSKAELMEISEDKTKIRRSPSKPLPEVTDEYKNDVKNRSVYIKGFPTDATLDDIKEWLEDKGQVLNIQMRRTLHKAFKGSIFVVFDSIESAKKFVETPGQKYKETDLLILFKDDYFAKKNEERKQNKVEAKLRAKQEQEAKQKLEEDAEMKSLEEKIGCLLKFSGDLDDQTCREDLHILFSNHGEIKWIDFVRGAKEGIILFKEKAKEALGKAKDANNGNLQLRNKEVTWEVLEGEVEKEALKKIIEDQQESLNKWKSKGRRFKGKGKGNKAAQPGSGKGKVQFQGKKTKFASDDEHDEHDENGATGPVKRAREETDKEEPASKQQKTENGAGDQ

[4] = target: T4, GFP-La fusion protein La_(10–100) (Homo sapiens (Human)., UniProt P05455); test: SDS-PAGE and immunoblotting; total extracts of HeLa cells transfected with GFP-La fusion constructs (N- or C-terminally truncated La); probed with anti-La mabs; anti-GFP as control; conditions: partners not purified
T4 construct: human La protein, residues 10-100 (La motif region); cloned into pEGFP-C2; pEGFP-C2 places GFP at the N-terminus of the insert (surmise); also called final La deletion mutant of Group 2; source: HeLa, transfected, in total extract
T4 sequence (P05455 10-100): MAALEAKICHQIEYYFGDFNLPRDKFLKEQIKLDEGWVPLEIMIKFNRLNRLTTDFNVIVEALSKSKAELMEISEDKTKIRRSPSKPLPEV

[5] = target: T5, eukaryotic human La protein of HeLa cells (Homo sapiens (Human)., UniProt P05455); test: SDS-PAGE and immunoblotting; total extracts of human HeLa or mouse 3T3 cells, denatured on the blot; probed with hybridoma supernatants; conditions: partners not purified
T5 construct: human La/SS-B autoantigen, endogenous in HeLa cells; also called hLa; source: endogenous, HeLa total extract; endogenous, fixed HeLa cells
T5 sequence (P05455 whole entry): as the sequence (P05455 whole entry, the tested form may be a part) above

[6] = target: T3, recombinant human La protein, full …; test: SDS-PAGE and immunoblotting; recombinant human La (rhLa) on the blot; probed with purified recombinant 312B Ig4 or 312B ge Ig4; conditions: both partners purified
Ro60 antigen = target: T6, Ro60 antigen (Homo sapiens (assumed), UniProt P10155); test: ELISA; hybridoma supernatants on Ro60 antigen; performed as in ref. 59
T6 construct: Ro60 (Ro/SS-A) antigen used in the anti-Ro ELISA; also called Ro/SS-A
T6 sequence (P10155 whole entry): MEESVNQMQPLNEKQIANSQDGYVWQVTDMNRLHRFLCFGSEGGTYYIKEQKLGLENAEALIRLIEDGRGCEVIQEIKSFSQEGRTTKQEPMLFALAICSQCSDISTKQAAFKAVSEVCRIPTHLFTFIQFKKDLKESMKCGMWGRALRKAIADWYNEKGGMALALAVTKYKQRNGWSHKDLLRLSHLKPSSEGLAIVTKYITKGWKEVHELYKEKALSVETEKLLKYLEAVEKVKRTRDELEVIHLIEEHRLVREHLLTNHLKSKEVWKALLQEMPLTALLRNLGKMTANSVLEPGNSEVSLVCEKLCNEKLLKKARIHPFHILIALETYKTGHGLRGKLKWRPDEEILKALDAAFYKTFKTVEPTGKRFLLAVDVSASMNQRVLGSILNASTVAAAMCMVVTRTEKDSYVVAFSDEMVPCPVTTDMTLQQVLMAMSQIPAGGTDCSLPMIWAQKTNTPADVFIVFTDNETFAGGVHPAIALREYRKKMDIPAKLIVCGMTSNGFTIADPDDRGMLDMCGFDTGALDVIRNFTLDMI

[7] = target: T7, GFP-La fusion protein La_(107–200) (Homo sapiens (Human)., UniProt P05455); test: SDS-PAGE and immunoblotting; total extracts of HeLa cells transfected with GFP-La fusion constructs (N- or C-terminally truncated La); probed with anti-La mabs; anti-GFP as control; conditions: partners not purified
T7 construct: cloned into pEGFP-C2; pEGFP-C2 places GFP at the N-terminus of the insert (surmise); also called final La deletion mutant of Group 1; source: HeLa, transfected, in total extract
T7 sequence (P05455 107-200): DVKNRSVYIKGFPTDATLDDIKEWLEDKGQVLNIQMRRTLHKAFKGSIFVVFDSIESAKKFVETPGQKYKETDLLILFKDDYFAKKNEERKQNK

B1: IgM type anti-La monoclonal antibody 16C (antibody, V domains shown)
VH: EVKLEESGPELVKPGSSVKISCKASGYTFTDYNMDWVKQSHGKSLEWIGAINPNNGGTSYNQKFKGKATLTVDKSSSTAYMELRSLTSEDSAVYYCARRDGGSYEWAMDYWGQGTSVTVSS
VL: DIVLTQSPASLSMAIGEKVTIRCITSTDIDDDMNWYQQKPGEPPKLLISEGNTLRPGVPSRFSSSGYGTDFVFTIENMLSEDVADYYCLQSDNLPLTFGGGTKLEIK
notes: variable heavy chain of 16C; variable light chain of 16C; IgM; Vl bt20, JK2; From the human La transgenic mouse; called polyreactive; also called anti-La mab (16C); source: hybridoma cell culture supernatant
binding result [1]: binds

B2: anti-La monoclonal antibody 312B (antibody, V domains shown)
VH: QVKLQESGAELMKPGSSVKFSCKAAGYTFTDYWIEWLKQRPGHGLEWIGEILPGSVSIKYNEKFKGKATFTADTSSNTAYMQLSSLTSEDSAVYYCARSRSIYDGYFYYWGQGTTLTVSS
VL: DIVMTQSTASLSASVGETVTITCRASENIYTYLAWYQQKQGKSPQLLVYNAKTLAEGVPSRFSGSGSGTQFSLRINSLQPEDFGSYYCQHHYGTPYTFGGGTKLEIK
notes: IgG1; Vl 12-44, JK2; From the human La transgenic mouse; source: hybridoma cell culture supernatant
binding result [2]: binds | binding result [3]: binds | binding result [4]: binds | binding result [5]: binds

B3: recombinant antibody based on the mature 312B sequence (scFv fused on a human IgG4 hinge and Fc) (Fc fusion, mouse)
VH: QVKLQESGAELMKPGSSVKFSCKAAGYTFTDYWIEWLKQRPGHGLEWIGEILPGSVSIKYNEKFKGKATFTADTSSNTAYMQLSSLTSEDSAVYYCARSRSIYDGYFYYWGQGTTLTVSS
VL: DIVMTQSTASLSASVGETVTITCRASENIYTYLAWYQQKQGKSPQLLVYNAKTLAEGVPSRFSGSGSGTQFSLRINSLQPEDFGSYYCQHHYGTPYTFGGGTKLEIK
notes: linker, printed as (Gly4Ser)3; VH-VL orientation; an Igkappa leader peptide was fused to the N-terminus for secretion; vector p6NST50; source: stably transduced 3T3 cell line, purified from cell culture supernatant (protein A); not shown: hinge and Fc (CH2-CH3) of human IgG4, C-terminal, kept
binding result [6]: binds

B5: anti-La monoclonal antibody 27E (antibody, V domains shown)
VH: EVQLQESGAELARPGASVKLSCKASGYSFRSYGINWVKQRTGQGLEWIGEIYPGSGTTFYNEKFRGKATLTADKSSSTAYMQLKSLTSEDSAVYFCARHGGYPFYFDYWGQGTTLTVSS
VL: DIVMTQSPAIMSASPGEKVTISCSASSSVSYMYWYQQKPGSSPKPWIYRTSNLASGVPARFSGSGSGTSYSLTISSMEAEDAATYYCQQYHSYPRTFGGGTKLEIK
notes: variable heavy chain of 27E; variable light chain of 27E; IgG2b; Vl aa4, JK1; From the human La transgenic mouse; also called Group 2 anti-La mab (27E); source: hybridoma cell culture supernatant
binding result [3]: binds | binding result [4]: binds | binding result [5]: binds

B6: anti-La monoclonal antibody 32A (antibody, V domains shown)
VH: EVQLQQSGAELARPGASVKLSCKASGYTFTTYGLTWVKQRTGQGLEWIGEIFPGSGTTFYNEKFNDKATLTADKSSSTAYMQLTSLTSEDSAVYFCARYSNYPYYFDYWGQGTTLTVSS
VL: QIVLTQSPTIMSASPGEKVTISCSASSSVSYMYWYQQKPGSSPKPWIYRTSNLASGVPDRFSGSGSGTSYSLTISSMEAEDAATYYCQQYHSYPRTFGGGTKLEIK
notes: variable heavy chain of 32A; variable light chain of 32A; IgG1; Vl aa4, JK1; From the human La transgenic mouse; also called Group 2 anti-La mab (32A); source: hybridoma cell culture supernatant
binding result [4]: binds

Next, values leading:

binding result [6]: no binding
B4: recombinant antibody based on the germline 312B sequence (scFv fused on a human IgG4 hinge and Fc) (Fc fusion, mouse)
VH: QVQLQQSGAELMKPGASVKLSCKATGYTFTGYWIEWVKQRPGHGLEWIGEILPGSGSTNYNEKFKGKATFTADTSSNTAYMQLSSLTTEDSAIYYCARSRSIYDGYFDYWGQGTTLTVSS
VL: DIQMTQSPASLSASVGETVTITCRASENIYSYLAWYQQKQGKSPQLLVYNAKTLAEGVPSRFSGSGSGTQFSLKINSLQPEDFGSYYCQHHYGTPYTFGGGTKLEIK
notes: as for B3

binding result [4]: binds
B7: anti-La monoclonal antibody 2F9 (antibody, V domains shown)
VH: EVQLQESGPGILQPSQTLSLTCSFSGFSLSTSGMGVSWIRQPSGKGLEWLAHIYWDDDKGYNPSLKSRLTISKDTSRNQVFLKITSVDTADTATYYCARGDVEFDYWGQGTTLTVSS
VL: DIVLTQSTASLAVSLGQRATISCRASESVDSYGNSFMHWYQQKPGQPPKLLIYRASNLESGIPARFSGSGSRTDFTLTINPVEADDVATYYCQQSNEDPPTFGSGTKLEIK
notes: variable heavy chain of 2F9; variable light chain of 2F9; IgG1; Vl 21-5, JK4; From the human La transgenic mouse; also called Group 2 anti-La mab (2F9); source: hybridoma cell culture supernatant

binding result [3]: no binding | binding result (Ro60 antigen): binds
B8: IgM type anti-Ro60 monoclonal antibody 312G (antibody, V domains shown)
VH: EVQLEESGPGLVAPSQSLSITCTVSGFSLSRYSVHWVRQPPGKGLEWLGMIWGGGSTDYNSALKSRLSISKDNSKSQVFLKMNSLQTDDTAIYYCATSNWPYAMDYWGQGTSVTVSS
VL: DIVMTQSPAIMSASPGEKVTMTCSASSSVSYMHWYQQKSGTSPKRWIYDTSKLASGVPARFSGSGSGTSYSLTISSMEAEDAATYYCQQWSSNPPTFGAGTKLELK
notes: variable heavy chain of 312G; variable light chain of 312G; IgM; Vl kk4, JK5; From the human La transgenic mouse; called polyreactive; also called anti-Ro mab (312G); anti-Ro60 mab; source: hybridoma cell culture supernatant

binding result [7]: binds
B9: anti-La monoclonal antibody 24BG7 (antibody, V domains shown)
VH: QVQLQQSGAELARPGASVKLSCKASGYSLTNYGISWVKQRTGQGLEWIGEIYRGSGNSYYNEKFKGKASLTADKSSSTAYMQLSSLTSEDSAVYFCARGGLSFAYWGQGTLVTVSA
VL: QIVLTQSPAIMSASPGEKVTMTCSASSSVTYMHWYQQKSGTSPKRWIYDTSKLASGVPARFSGSGSGTSYSLTISTMEAEDAATYYCQQWISNPPTFGGGTKLEIK
notes: variable heavy chain of 24BG7; variable light chain of 24BG7; IgG1; Vl kk4, JK2; From the human La transgenic mouse; also called Group 1 anti-La mab (24BG7); source: hybridoma cell culture supernatant

binding result [7]: binds
B10: anti-La monoclonal antibody 22A (antibody, V domains shown)
VH: QVKLEESGPELVKPGAPVKISCKTSGYTFTNYYIYWVKQRPGQGLEWIGYIYPGNGGTAYNQKFKDKATLTADNPSNTAYMQLSSLTSEDSAVYLCARRGALGYYFDYWGQGTTLTVSS
VL: QIVLTQSPAIMSASPGEKVTMTCSASSSVSYMYWYQQKSGTSPKRWIYDTSKLASGVPARFSGSGSGTSYSLTISSMEAEDAATYYCQQWSSNPQFGTGTKLEVK
notes: variable heavy chain of 22A; variable light chain of 22A; IgG1; Vl kk4, JK5; From the human La transgenic mouse; also called Group 1 anti-La mab (22A); source: hybridoma cell culture supernatant
